Measured values taken from patent US7144731B2, “SCF antibody compositions and methods of using the same” (Amgen Inc., priority 1989, dated 2006).

How the values were obtained:
[1] = test system: 5-FU treated mouse bone marrow cells; test: HPP-CFC assay; type: cell-based; conditions: typical assay; plated with CSF-1 or IL-6
Text: There are a variety of biological activities which can be attributed to the natural mammalian rat SCF as well as the recombinant rat SCF protein. One such activity is its effect on early hematopoietic cells. This activity can be measured in a High Proliferative Potential Colony Forming Cell (HPP-CFC) assay [Zsebo, et al., supra (1988)]. To investigate the effects of factors on early hematopoietic cells, the HPP-CFC assay system utilizes mouse bone marrow derived from animals 2 days after 5-fluorouracil (5-FU) treatment. […] The rat SCF is plated in the presence of CSF-1 or IL-6 in semi-solid agar cultures. The agar cultures contain McCoys complete medium (GIBCO), 20% fetal bovine serum, 0.3% agar, and 2×10^5 bone marrow cells/ml. The McCoys complete medium contains the following components: 1× McCoys medium supplemented with 0.1 mM pyruvate, 0.24× essential amino acids, 0.24× non-essential amino acids, 0.027% sodium bicarbonate, 0.24× vitamins, 0.72 mM glutamine, 25 μg/ml L-serine, and 12 μg/ml L-asparagine. The bone marrow cells are obtained from Balb/c mice injected i.v. with 150 mg/kg 5-FU. The femurs are harvested 2 days post 5-FU treatment of the mice and bone marrow is flushed out. The red blood cells are lysed with red blood cell lysing reagent (Becton Dickenson) prior to plating. Test substances are plated with the above mixture in 30 mm dishes. Fourteen days later the colonies (>1 mm in diameter) which contain thousands of cells are scored. This assay was used throughout the purification of natural mammalian cell-derived rat SCF.

[2] = test system: murine mast cell line, MC/9; test: MC/9 ^3H-thymidine uptake assay; type: cell-based; conditions: typical
Experimental: Another useful biological activity of both naturally-derived and recombinant rat SCF is the ability to cause the proliferation of the […] murine mast cell line, MC/9 (ATCC CRL 8306). MC/9 cells are cultured with a source of […] according to the ATCC CRL 8306 protocol. The medium used in the bioassay is RPMI 1640, 4% fetal bovine serum, 5×10^−5M 2-mercaptoethanol, and 1× glutamine-pen-strep. The MC/9 cells proliferate in response to SCF without the requirement for other growth factors. This proliferation is measured by first culturing the cells for 24 h without growth factors, plating 5000 cells in each well of 96 well plates with test sample for 48 h, pulsing for 4 h with 0.5 uCi ^3H-thymidine (specific activity 20 Ci/mmol), harvesting the solution onto glass fiber filters, and then measuring specifically-bound radioactivity. This assay was used in the purification of mammalian cell derived rat SCF after the ACA 54 gel filtration step, section C2 of this Example. Typically, SCF caused a 4–10 fold increase in CPM over background.

normal mouse bone marrow = test: CFU-GM assay on normal mouse bone marrow; type: cell-based; conditions: 10 day period, no other factors
Experimental: The action of purified mammalian SCF, both naturally-derived and recombinant, free from interfering colony stimulating factors (CSFs), on normal undepleted mouse bone marrow has been ascertained. A CFU-GM assay [Broxmeyer et al. Exp. Hematol., 5, 87 (1977)] is used to evaluate the effect of SCF on normal marrow. Briefly, total bone marrow cells after lysis of red blood cells are plated in semi-solid agar cultures containing the test substance. After.10 days, the colonies containing clusters of >40 cells are scored. The agar cultures can be dried down onto glass slides and the morphology of the cells can be determined via specific histological stains.

[3] = test system: bone marrow cells (CFU-S); test: pre-CFU-S assay; type: cell-based, mouse
Experimental: The in vitro survival and proliferation of primitive stem cells is critical to the success of gene transfer mediated by retroviral insertion or other known methods of gene transfer. The effect of SCF on the in vitro maintenance and/or proliferation of primitive progenitor cells has been studied in two systems which have been described previously [Bodine et al., Proc. Natl. Acad. Sci. 86 8897–8901, 1989]. The first is a pre-CFU-S assay wherein bone marrow cells are incubated for up to six days in suspension culture in the presence of growth factors. Aliquots are injected into lethally iradiated mice and the mice sacrificed at 12–14 days for quantitation of spleen focus formation. […] The second is a competitive repopulation assay which measures the effects of growth factors on recovery and biological activity of cells capable of sustaining long-term hematopoiesis. Cells from two congenic strains of mice differing for a hemoglobin marker are incubated in suspension independently, cells from one strain as a control and cells from a second under experimental conditions. After incubation, equal numbers of bone marrow cells from both cultures are mixed and injected into W/W^v recipients.

B1: rat SCF: rat stem cell factor, natural (purified from BRL 3A conditioned medium) or recombinant; form not specified at the place (protein, UniProt P21581 26-190, looked up)
Soluble KIT ligand: QEICRNPVTDNVKDITKLVANLPNDYMITLNYVAGMDVLPSHCWLRDMVTHLSVSLTTLLDKFSNISEGLSNYSIIDKLGKIVDDLVACMEENAPKNVKESLKKPETRNFTPEEFFSIFNRSIDAFKDFMVASDTSDCVLSSTLGPEKDSRVSVTKPFMLPPVAA
HPP-CFC per 200,000 cells plated [1]: approximately 50 | increase in CPM over background [2]: 4–10 fold | colonies from 200,000 cells plated (normal mouse bone marrow): over 100 | activity in the pre-CFU-S assay [3]: very little activity
